Assay results: article PMC11722443

Biological target: Paxillin (PXN) N-domain, residues 1-311 (human) (UniProt P49023)
Assay: NMR titration

Question: Which effective KD of the LD2 motif does the source give for “Focal adhesion targeting (FAT) domain of focal adhesion kinase (FAK) (domain or fragment)” here?
Answer: 7 mM
